According to the supplement of paper PMC5998384:

Assays:
HeLa Kyoto [1] = assay: thermal stability score vs G1/S (z-score of summed log2 fold changes over temperatures); higher = more thermally stable than in G1/S
HeLa Kyoto [2] = assay: solubility change mitosis vs G1/S (difference of NP-40 vs SDS log2 ratios) (log2 ratio difference); higher = more soluble in mitosis
HeLa Kyoto [3] = assay: melting temperature (median over replicates), in situ; higher = more thermally stable
HeLa Kyoto [4] = assay: solubility in G1/S (NP-40 vs SDS abundance) (log2 ratio); higher = more soluble; conditions: cell cycle stage: G1/S
[5] = cell cycle stage: early G1 (4.5 h after nocodazole release)
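Wherever melting temperature (median over replicates), in situ is given: HeLa Kyoto cells synchronized by double thymidine or nocodazole block, proteins quantified by TMT10plex mass spectrometry, three independent biological replicates.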
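Wherever solubility change mitosis vs G1/S (difference of NP-40 vs SDS log2 ratios) is given: synchronized HeLa Kyoto cells (double thymidine block for G1/S, nocodazole release for mitosis), protein amounts in NP-40 versus SDS lysates quantified by mass spectrometry, three biological replicates.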
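Wherever solubility in G1/S (NP-40 vs SDS abundance) is given: HeLa Kyoto cells arrested at G1/S by double thymidine block, proteins quantified by TMT10plex mass spectrometry in mild NP-40 versus SDS extracts, three biological replicates.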
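Wherever thermal stability score vs G1/S (z-score of summed log2 fold changes over temperatures) is given: synchronized HeLa Kyoto cells, proteins quantified by TMT10plex mass spectrometry, three biological replicates, mitosis taken 0.5 h after nocodazole release, G1/S directly after double thymidine block.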

Row | Sequence | thermal stability score (HeLa Kyoto [1]; [5]) | thermal stability score (HeLa Kyoto [1]; cell cycle stage: mitosis) | solubility change mitosis (log2) (HeLa Kyoto [2]) | melting temperature (HeLa Kyoto [3]; cell cycle stage: G1/S) | melting temperature (HeLa Kyoto [3]; cell cycle stage: mitosis) | solubility in G1/S (log2) (HeLa Kyoto [4])
1 | MANDSPAKSLVDIDLSSLRDPAGIFELVEVVGNGTYGQVYKGRHVKTGQLAAIKVMDVTEDEEEEIKLEINMLKKYSHHRNIATYYGAFIKKSPPGHDDQLWLVMEFCGAGSITDLVKNTKGNTLKEDWIAYISREILRGLAHLHIHHVIHRDIKGQNVLLTENAEVKLVDFGVSAQLDRTVGRRNTFIGTPYWMAPEVIACDENPDATYDYRSDLWSCGITAIEMAEGAPPLCDMHPMRALFLIPRNPPPRLKSKKWSKKFFSFIEGCLVKNYMQRPSTEQLLKHPFIRDQPNERQVRIQLKDHIDRTRKKRGEKDETEYEYSGSEEEEEEVPEQEGEPSSIVNVPGESTLRRDFLRLQQENKERSEALRRQQLLQEQQLREQEEYKRQLLAERQKRIEQQKEQRRRLEEQQRREREARRQQEREQRRREQEEKRRLEELERRRKEEEERRRAEEEKRRVEREQEYIRRQLEEEQRHLEVLQQQLLQEQAMLLECRWREMEEHRQAERLQRQLQQEQAYLLSLQHDHRRPHPQHSQQPPPPQQERSKPSFHAPEPKAHYEPADRAREVEDRFRKTNHSSPEAQSKQTGRVLEPPVPSRSESFSNGNSESVHPALQRPAEPQVPVRTTSRSPVLSRRDSPLQGSGQQNSQAGQRNSTSIEPRLLWERVEKLVPRPGSGSSSGSSNSGSQPGSHPGSQSGSGERFRVRSSSKSEGSPSQRLENAVKKPEDKKEVFRPLKPADLTALAKELRAVEDVRPPHKVTDYSSSSEESGTTDEEDDDVEQEGADESTSGPEDTRAASSLNLSNGETESVKTMIVHDDVESEPAMTPSKEGTLIVRQTQSASSTLQKHKSSSSFTPFIDPRLLQISPSSGTTVTSVVGFSCDGMRPEAIRQDPTRKGSVVNVNPTNTRPQSDTPEIRKYKKRFNSEILCAALWGVNLLVGTESGLMLLDRSGQGKVYPLINRRRFQQMDVLEGLNVLVTISGKKDKLRVYYLSWLRNKILHNDPEVEKKQGWTTVGDLEGCVHYKVVKYERIKFLVIALKSSVEVYAWAPKPYHKFMAFKSFGELVHKPLLVDLTVEEGQRLKVIYGSCAGFHAVDVDSGSVYDIYLPTHIQCSIKPHAIIILPNTDGMELLVCYEDEGVYVNTYGRITKDVVLQWGEMPTSVAYIRSNQTMGWGEKAIEIRSVETGHLDGVFMHKRAQRLKFLCERNDKVFFASVRSGGSSQVYFMTLGRTSLLSW [MAP4K4] | 0.471 | 0.408 | -0.0676 | 51.7 °C | 51.3 °C | -0.155
2 | MANEAYPCPCDIGHRLEYGGLGREVQVEHIKAYVTKSPVDAGKAVIVIQDIFGWQLPNTRYIADMISGNGYTTIVPDFFVGQEPWDPSGDWSIFPEWLKTRNAQKIDREISAILKYLKQQCHAQKIGIVGFCWGGTAVHHLMMKYSEFRAGVSVYGIVKDSEDIYNLKNPTLFIFAENDVVIPLKDVSLLTQKLKEHCKVEYQIKTFSGQTHGFVHRKREDCSPADKPYIDEARRNLIEWLNKYM [CMBL] | -0.107 | -0.238 | -0.08 | 53.5 °C | 52.8 °C | 0.267
3 | MANEEDDPVVQEIDVYLAKSLAEKLYLFQYPVRPASMTYDDIPHLSAKIKPKQQKVELEMAIDTLNPNYCRSKGEQIALNVDGACADETSTYSSKLMDKQTFCSSQTTSNTSRYAAALYRQGELHLTPLHGILQLRPSFSYLDKADAKHREREAANEAGDSSQDEAEDDVKQITVRFSRPESEQARQRRVQSYEFLQKKHAEEPWVHLHYYGLRDSRSEHERQYLLCPGSSGVENTELVKSPSEYLMMLMPPSQEEEKDKPVAPSNVLSMAQLRTLPLADQIKILMKNVKVMPFANLMSLLGPSIDSVAVLRGIQKVAMLVQGNWVVKSDILYPKDSSSPHSGVPAEVLCRGRDFVMWKFTQSRWVVRKEVATVTKLCAEDVKDFLEHMAVVRINKGWEFILPYDGEFIKKHPDVVQRQHMLWTGIQAKLEKVYNLVKETMPKKPDAQSGPAGLVCGDQRIQVAKTKAQQNHALLERELQRRKEQLRVPAVPPGVRIKEEPVSEEGEEDEEQEAEEEPMDTSPSGLHSKLANGLPLGRAAGTDSFNGHPPQGCASTPVARELKAFVEATFQRQFVLTLSELKRLFNLHLASLPPGHTLFSGISDRMLQDTVLAAGCKQILVPFPPQTAASPDEQKVFALWESGDMSDQHRQVLLEIFSKNYRVRRNMIQSRLTQECGEDLSKQEVDKVLKDCCVSYGGMWYLKGTVQS [POLR3E] | 0.337 | 0.588 | -0.0491 | 49.8 °C | 49.9 °C | 0.128
4 | MANSGCKDVTGPDEESFLYFAYGSNLLTERIHLRNPSAAFFCVARLQDFKLDFGNSQGKTSQTWHGGIATIFQSPGDEVWGVVWKMNKSNLNSLDEQEGVKSGMYVVIEVKVATQEGKEITCRSYLMTNYESAPPSPQYKKIICMGAKENGLPLEYQEKLKAIEPNDYTGKVSEEIEDIIKKGETQTL [GGCT] | -0.47 | -3.22 | -0.0992 | 55.4 °C | 55.3 °C | 0.302
5 | MANVGLQFQASAGDSDPQSRPLLLLGQLHHLHRVPWSHVRGKLQPRVTEELWQAALSTLNPNPTDSCPLYLNYATVAALPCRVSRHNSPSAAHFITRLVRTCLPPGAHRCIVMVCEQPEVFASACALARAFPLFTHRSGASRRLEKKTVTVEFFLVGQDNGPVEVSTLQCLANATDGVRLAARIVDTPCNEMNTDTFLEEINKVGKELGIIPTIIRDEELKTRGFGGIYGVGKAALHPPALAVLSHTPDGATQTIAWVGKGIVYDTGGLSIKGKTTMPGMKRDCGGAAAVLGAFRAAIKQGFKDNLHAVFCLAENSVGPNATRPDDIHLLYSGKTVEINNTDAEGRLVLADGVSYACKDLGADIILDMATLTGAQGIATGKYHAAVLTNSAEWEAACVKAGRKCGDLVHPLVYCPELHFSEFTSAVADMKNSVADRDNSPSSCAGLFIASHIGFDWPGVWVHLDIAAPVHAGERATGFGVALLLALFGRASEDPLLNLVSPLGCEVDVEEGDLGRDSKRRRLV [NPEPL1] | -4.2 | -3.53 | -0.0373 | 58.3 °C | 58.8 °C | 0.106
6 | MAPGQLALFSVSDKTGLVEFARNLTALGLNLVASGGTAKALRDAGLAVRDVSELTGFPEMLGGRVKTLHPAVHAGILARNIPEDNADMARLDFNLIRVVACNLYPFVKTVASPGVTVEEAVEQIDIGGVTLLRAAAKNHARVTVVCEPEDYVVVSTEMQSSESKDTSLETRRQLALKAFTHTAQYDEAISDYFRKQYSKGVSQMPLRYGMNPHQTPAQLYTLQPKLPITVLNGAPGFINLCDALNAWQLVKELKEALGIPAAASFKHVSPAGAAVGIPLSEDEAKVCMVYDLYKTLTPISAAYARARGADRMSSFGDFVALSDVCDVPTAKIISREVSDGIIAPGYEEEALTILSKKKNGNYCVLQMDQSYKPDENEVRTLFGLHLSQKRNNGVVDKSLFSNVVTKNKDLPESALRDLIVATIAVKYTQSNSVCYAKNGQVIGIGAGQQSRIHCTRLAGDKANYWWLRHHPQVLSMKFKTGVKRAEISNAIDQYVTGTIGEDEDLIKWKALFEEVPELLTEAEKKEWVEKLTEVSISSDAFFPFRDNVDRAKRSGVAYIAAPSGSAADKVVIEACDELGIILAHTNLRLFHH [ATIC] | -0.0275 | 1.16 | -0.093 | 54.4 °C | 54.4 °C | 0.0708
7 | MAPGVARGPTPYWRLRLGGAALLLLLIPVAAAQEPPGAACSQNTNKTCEECLKNVSCLWCNTNKACLDYPVTSVLPPASLCKLSSARWGVCWVNFEALIITMSVVGGTLLLGIAICCCCCCRRKRSRKPDRSEEKAMREREERRIRQEERRAEMKTRHDEIRKKYGLFKEENPYARFENN [PTTG1IP] | -5.97 | -6.48 | -0.143 | 56.3 °C |  | -0.362
8 | MAPKGSSKQQSEEDLLLQDFSRNLSAKSSALFFGNAFIVSAIPIWLYWRIWHMDLIQSAVLYSVMTLVSTYLVAFAYKNVKFVLKHKVAQKREDAVSKEVTRKLSEADNRKMSRKEKDERILWKKNEVADYEATTFSIFYNNTLFLVVVIVASFFILKNFNPTVNYILSISASSGLIALLSTGSK [SSR3] | 1.59 | -0.0489 | 0.126 | 57.8 °C | 57.2 °C | -0.131
9 | MAPLDLDKYVEIARLCKYLPENDLKRLCDYVCDLLLEESNVQPVSTPVTVCGDIHGQFYDLCELFRTGGQVPDTNYIFMGDFVDRGYYSLETFTYLLALKAKWPDRITLLRGNHESRQITQVYGFYDECQTKYGNANAWRYCTKVFDMLTVAALIDEQILCVHGGLSPDIKTLDQIRTIERNQEIPHKGAFCDLVWSDPEDVDTWAISPRGAGWLFGAKVTNEFVHINNLKLICRAHQLVHEGYKFMFDEKLVTVWSAPNYCYRCGNIASIMVFKDVNTREPKLFRAVPDSERVIPPRTTTPYFL [PPP6C] | -1.68 | -2.31 | -0.154 | 53.7 °C | 54.1 °C | -0.00442
10 | MAPLLGRKPFPLVKPLPGEEPLFTIPHTQEAFRTREEYEARLERYSERIWTCKSTGSSQLTHKEAWEEEQEVAELLKEEFPAWYEKLVLEMVHHNTASLEKLVDTAWLEIMTKYAVGEECDFEVGKEKMLKVKIVKIHPLEKVDEEATEKKSDGACDSPSSDKENSSQIAQDHQKKETVVKEDEGRRESINDRARRSPRKLPTSLKKGERKWAPPKFLPHKYDVKLQNEDKIISNVPADSLIRTERPPNKEIVRYFIRHNALRAGTGENAPWVVEDELVKKYSLPSKFSDFLLDPYKYMTLNPSTKRKNTGSPDRKPSKKSKTDNSSLSSPLNPKLWCHVHLKKSLSGSPLKVKNSKNSKSPEEHLEEMMKMMSPNKLHTNFHIPKKGPPAKKPGKHSDKPLKAKGRSKGILNGQKSTGNSKSPKKGLKTPKTKMKQMTLLDMAKGTQKMTRAPRNSGGTPRTSSKPHKHLPPAALHLIAYYKENKDREDKRSALSCVISKTARLLSSEDRARLPEELRSLVQKRYELLEHKKRWASMSEEQRKEYLKKKREELKKKLKEKAKERREKEMLERLEKQKRYEDQELTGKNLPAFRLVDTPEGLPNTLFGDVAMVVEFLSCYSGLLLPDAQYPITAVSLMEALSADKGGFLYLNRVLVILLQTLLQDEIAEDYGELGMKLSEIPLTLHSVSELVRLCLRRSDVQEESEGSDTDDNKDSAAFEDNEVQDEFLEKLETSEFFELTSEEKLQILTALCHRILMTYSVQDHMETRQQMSAELWKERLAVLKEENDKKRAEKQKRKEMEAKNKENGKVENGLGKTDRKKEIVKFEPQVDTEAEDMISAVKSRRLLAIQAKKEREIQEREMKVKLERQAEEERIRKHKAAAEKAFQEGIAKAKLVMRRTPIGTDRNHNRYWLFSDEVPGLFIEKGWVHDSIDYRFNHHCKDHTVSGDEDYCPRSKKANLGKNASMNTQHGTATEVAVETTTPKQGQNLWFLCDSQKELDELLNCLHPQGIRESQLKERLEKRYQDIIHSIHLARKPNLGLKSCDGNQELLNFLRSDLIEVATRLQKGGLGYVEETSEFEARVISLEKLKDFGECVIALQASVIKKFLQGFMAPKQKRRKLQSEDSAKTEEVDEEKKMVEEAKVASALEKWKTAIREAQTFSRMHVLLGMLDACIKWDMSAENARCKVCRKKGEDDKLILCDECNKAFHLFCLRPALYEVPDGEWQCPACQPATARRNSRGRNYTEESASEDSEDDESDEEEEEEEEEEEEEDYEVAGLRLRPRKTIRGKHSVIPPAARSGRRPGKKPHSTRRSQPKAPPVDDAEVDELVLQTKRSSRRQSLELQKCEEILHKIVKYRFSWPFREPVTRDEAEDYYDVITHPMDFQTVQNKCSCGSYRSVQEFLTDMKQVFTNAEVYNCRGSHVLSCMVKTEQCLVALLHKHLPGHPYVRRKRKKFPDRLAEDEGDSEPEAVGQSRGRRQKK [BAZ1B] | 1.09 | -0.274 | 1.24 | 50.7 °C | 51 °C | -2.14
